Here are results for 58 variants from the Human Domainome abundance scans (Beltran et al. 2025).

B1: Zinc finger MYM-type protein 2, residues 463 to 506; numbered along this chain, Q9UBW7 (parent)
chain: IMNCCEQCGEYLPSKGAGNNVLVIDGQQKRFCCQSCVSEYKQVG

± gives the uncertainty stated by the source.

The variants in the data set derive from B1. As to the kind of experiment: abundance fitness (aPCA) (normalised: wild type 0, dead -1); higher = more abundant; growth selection in yeast, the domain comes from the species named. The conditions noted are these: Homo sapiens.
On to IMNCCEQCGECLPSKGAGNNVLVIDGQQKRFCCQSCVSEYKQVG, for which the abundance fitness turned out to be 0.035 ± 0.097.

On to IMNCCEQCGEDLPSKGAGNNVLVIDGQQKRFCCQSCVSEYKQVG, for which the abundance fitness was determined as 0.282 ± 0.11.

For the variant IMNCCEQCGEALPSKGAGNNVLVIDGQQKRFCCQSCVSEYKQVG, the abundance fitness is 0.176 ± 0.092.

As to IMNCCEQCGEFLPSKGAGNNVLVIDGQQKRFCCQSCVSEYKQVG, the abundance fitness was -0.133 ± 0.087.

For the variant IMNCCEQCGEELPSKGAGNNVLVIDGQQKRFCCQSCVSEYKQVG, the abundance fitness was found to be 0.296 ± 0.091.

On to IMNCCEQCGEGLPSKGAGNNVLVIDGQQKRFCCQSCVSEYKQVG, for which the abundance fitness turned out to be 0.227 ± 0.073.

On to IMNCCEQCGEHLPSKGAGNNVLVIDGQQKRFCCQSCVSEYKQVG, for which the abundance fitness is 0.298 ± 0.11.

For the variant IMNCCEMCGEYLPSKGAGNNVLVIDGQQKRFCCQSCVSEYKQVG, the abundance fitness was -0.152 ± 0.1.

Consider IMNCCERCGEYLPSKGAGNNVLVIDGQQKRFCCQSCVSEYKQVG, for which the abundance fitness is -0.019 ± 0.08.

Regarding IMNCCEVCGEYLPSKGAGNNVLVIDGQQKRFCCQSCVSEYKQVG, the abundance fitness is -0.288 ± 0.082.

As for IMNCCEYCGEYLPSKGAGNNVLVIDGQQKRFCCQSCVSEYKQVG, the abundance fitness was -0.222 ± 0.13.

As for IMNCCENCGEYLPSKGAGNNVLVIDGQQKRFCCQSCVSEYKQVG, the abundance fitness is -0.436 ± 0.27.

For IMNCCETCGEYLPSKGAGNNVLVIDGQQKRFCCQSCVSEYKQVG, the abundance fitness is -0.139 ± 0.13.

In the case of IMNCCEWCGEYLPSKGAGNNVLVIDGQQKRFCCQSCVSEYKQVG, the abundance fitness is -0.214 ± 0.091.

Consider IMNCCEQLGEYLPSKGAGNNVLVIDGQQKRFCCQSCVSEYKQVG, for which the abundance fitness was -1.05 ± 0.11.

Regarding IMNCCEQAGEYLPSKGAGNNVLVIDGQQKRFCCQSCVSEYKQVG, the abundance fitness was -0.505 ± 0.083.

Regarding IMNCCEQMGEYLPSKGAGNNVLVIDGQQKRFCCQSCVSEYKQVG, the abundance fitness is -1.1 ± 0.23.

For IMNCCEQRGEYLPSKGAGNNVLVIDGQQKRFCCQSCVSEYKQVG, the abundance fitness is -0.611 ± 0.089.

Turning to IMNCCEQSGEYLPSKGAGNNVLVIDGQQKRFCCQSCVSEYKQVG, the abundance fitness was -0.337 ± 0.1.

For the variant IMNCCEQHGEYLPSKGAGNNVLVIDGQQKRFCCQSCVSEYKQVG, the abundance fitness is -0.233 ± 0.12.

IMNCCEQDGEYLPSKGAGNNVLVIDGQQKRFCCQSCVSEYKQVG: the abundance fitness was -0.77 ± 0.21.

With IMNCCEQQGEYLPSKGAGNNVLVIDGQQKRFCCQSCVSEYKQVG, the abundance fitness was -0.573 ± 0.4.

As for IMNCCEQPGEYLPSKGAGNNVLVIDGQQKRFCCQSCVSEYKQVG, the abundance fitness was -0.775 ± 0.097.

On to IMNCCEQGGEYLPSKGAGNNVLVIDGQQKRFCCQSCVSEYKQVG, for which the abundance fitness is -0.391 ± 0.082.

On to IMNCCEQEGEYLPSKGAGNNVLVIDGQQKRFCCQSCVSEYKQVG, for which the abundance fitness is -0.307 ± 0.097.

Consider IMNCCEQWGEYLPSKGAGNNVLVIDGQQKRFCCQSCVSEYKQVG, for which the abundance fitness was -1.41 ± 0.12.

In the case of IMNCCEQVGEYLPSKGAGNNVLVIDGQQKRFCCQSCVSEYKQVG, the abundance fitness was -0.712 ± 0.077.

In the case of IMNCCEQFGEYLPSKGAGNNVLVIDGQQKRFCCQSCVSEYKQVG, the abundance fitness is -1.18 ± 0.18.

As for IMNCCEQYGEYLPSKGAGNNVLVIDGQQKRFCCQSCVSEYKQVG, the abundance fitness was -0.311 ± 0.48.

On to IMNCCEQCPEYLPSKGAGNNVLVIDGQQKRFCCQSCVSEYKQVG, for which the abundance fitness is -0.68 ± 0.12.

Take IMNCCEQCEEYLPSKGAGNNVLVIDGQQKRFCCQSCVSEYKQVG: the abundance fitness was -0.495 ± 0.11.

On to IMNCCEQCCEYLPSKGAGNNVLVIDGQQKRFCCQSCVSEYKQVG, for which the abundance fitness was -0.148 ± 0.12.

Turning to IMNCCEQCAEYLPSKGAGNNVLVIDGQQKRFCCQSCVSEYKQVG, the abundance fitness is -0.17 ± 0.082.

For IMNCCEQCREYLPSKGAGNNVLVIDGQQKRFCCQSCVSEYKQVG, the abundance fitness was -0.436 ± 0.076.

For the variant IMNCCEQCFEYLPSKGAGNNVLVIDGQQKRFCCQSCVSEYKQVG, the abundance fitness was -0.001 ± 0.17.

Consider IMNCCEQCKEYLPSKGAGNNVLVIDGQQKRFCCQSCVSEYKQVG, for which the abundance fitness is -0.511 ± 0.11.

As to IMNCCEQCLEYLPSKGAGNNVLVIDGQQKRFCCQSCVSEYKQVG, the abundance fitness is -0.289 ± 0.1.

On to IMNCCEQCYEYLPSKGAGNNVLVIDGQQKRFCCQSCVSEYKQVG, for which the abundance fitness came to 0.102 ± 0.15.

In the case of IMNCCEQCVEYLPSKGAGNNVLVIDGQQKRFCCQSCVSEYKQVG, the abundance fitness was -0.563 ± 0.083.

With IMNCCEQCDEYLPSKGAGNNVLVIDGQQKRFCCQSCVSEYKQVG, the abundance fitness is -0.671 ± 0.15.

Turning to IMNCCEQCIEYLPSKGAGNNVLVIDGQQKRFCCQSCVSEYKQVG, the abundance fitness is -0.417 ± 0.17.

As for IMNCCEQCQEYLPSKGAGNNVLVIDGQQKRFCCQSCVSEYKQVG, the abundance fitness was -0.067 ± 0.15.

As for IMNCCEQCWEYLPSKGAGNNVLVIDGQQKRFCCQSCVSEYKQVG, the abundance fitness is -0.442 ± 0.083.

Take IMNCCEQCTEYLPSKGAGNNVLVIDGQQKRFCCQSCVSEYKQVG: the abundance fitness was -0.018 ± 0.099.

As for IMNCCEQCGSYLPSKGAGNNVLVIDGQQKRFCCQSCVSEYKQVG, the abundance fitness was -0.358 ± 0.14.

For the variant IMNCCEQCGLYLPSKGAGNNVLVIDGQQKRFCCQSCVSEYKQVG, the abundance fitness was -1.08 ± 0.15.

IMNCCEQCGHYLPSKGAGNNVLVIDGQQKRFCCQSCVSEYKQVG: the abundance fitness is -0.224 ± 0.27.

As for IMNCCEQCGKYLPSKGAGNNVLVIDGQQKRFCCQSCVSEYKQVG, the abundance fitness was -0.068 ± 0.15.

Turning to IMNCCEQCGWYLPSKGAGNNVLVIDGQQKRFCCQSCVSEYKQVG, the abundance fitness is -0.4 ± 0.13.

Take IMNCCEQCGNYLPSKGAGNNVLVIDGQQKRFCCQSCVSEYKQVG: the abundance fitness was -0.389 ± 0.14.

For the variant IMNCCEQCGQYLPSKGAGNNVLVIDGQQKRFCCQSCVSEYKQVG, the abundance fitness was -0.403 ± 0.092.

On to IMNCCEQCGPYLPSKGAGNNVLVIDGQQKRFCCQSCVSEYKQVG, for which the abundance fitness is -0.356 ± 0.17.

Consider IMNCCEQCGTYLPSKGAGNNVLVIDGQQKRFCCQSCVSEYKQVG, for which the abundance fitness was -0.751 ± 0.12.

Regarding IMNCCEQCGDYLPSKGAGNNVLVIDGQQKRFCCQSCVSEYKQVG, the abundance fitness was -0.197 ± 0.1.

IMNCCEQCGAYLPSKGAGNNVLVIDGQQKRFCCQSCVSEYKQVG: the abundance fitness was -0.477 ± 0.12.

As for IMNCCEQCGVYLPSKGAGNNVLVIDGQQKRFCCQSCVSEYKQVG, the abundance fitness is -0.86 ± 0.1.

Consider IMNCCEQCGIYLPSKGAGNNVLVIDGQQKRFCCQSCVSEYKQVG, for which the abundance fitness was -0.66 ± 0.28.

Turning to IMNCCEQCGMYLPSKGAGNNVLVIDGQQKRFCCQSCVSEYKQVG, the abundance fitness is -0.656 ± 0.13.
